For one substance, Kd results are on record in PMC12312913.

By Kd is commonly meant the concentration at which binding is half-saturated. Read a low Kd as a tighter complex.

Common to all, as to experiment: BLI; Octet R2; His6-tagged OMP-TF bound to rabbit anti-His mAb and tethered to ProA biosensors; analyte: crude cell lysate of J-Flag at different concentrations; PBS with 0.1% BSA and 0.01% Tween-20; double reference subtraction (buffer and TF sensor); 1:1 binding model
For orientation: In BLI a coated tip is dipped into the sample, and binding shifts an interference pattern.

Test [1] has as its target BtuB fused to TF and His tag (S. Typhimurium) (UniProt P37409).
The target of test [2] is OmpC fused to TF and His tag (S. Typhimurium) (UniProt P0A263).
OmpC fused to TF and His tag (S. Typhimurium), sequence (P0A263 22-378): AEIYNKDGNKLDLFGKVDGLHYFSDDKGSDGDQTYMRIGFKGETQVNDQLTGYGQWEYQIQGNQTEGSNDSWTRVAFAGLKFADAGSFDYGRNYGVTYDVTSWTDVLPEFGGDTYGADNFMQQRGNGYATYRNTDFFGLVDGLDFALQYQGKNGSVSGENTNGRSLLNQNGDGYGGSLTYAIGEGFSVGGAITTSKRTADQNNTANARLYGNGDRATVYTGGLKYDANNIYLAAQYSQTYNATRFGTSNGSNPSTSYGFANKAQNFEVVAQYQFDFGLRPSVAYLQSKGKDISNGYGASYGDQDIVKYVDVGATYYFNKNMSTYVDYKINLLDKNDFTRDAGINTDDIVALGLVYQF
Test [3] concerns the target OmpX fused to TF and His tag (S. Typhimurium).

BtuB fused to TF and His tag (S. Typhimurium), sequence (P37409 21-614): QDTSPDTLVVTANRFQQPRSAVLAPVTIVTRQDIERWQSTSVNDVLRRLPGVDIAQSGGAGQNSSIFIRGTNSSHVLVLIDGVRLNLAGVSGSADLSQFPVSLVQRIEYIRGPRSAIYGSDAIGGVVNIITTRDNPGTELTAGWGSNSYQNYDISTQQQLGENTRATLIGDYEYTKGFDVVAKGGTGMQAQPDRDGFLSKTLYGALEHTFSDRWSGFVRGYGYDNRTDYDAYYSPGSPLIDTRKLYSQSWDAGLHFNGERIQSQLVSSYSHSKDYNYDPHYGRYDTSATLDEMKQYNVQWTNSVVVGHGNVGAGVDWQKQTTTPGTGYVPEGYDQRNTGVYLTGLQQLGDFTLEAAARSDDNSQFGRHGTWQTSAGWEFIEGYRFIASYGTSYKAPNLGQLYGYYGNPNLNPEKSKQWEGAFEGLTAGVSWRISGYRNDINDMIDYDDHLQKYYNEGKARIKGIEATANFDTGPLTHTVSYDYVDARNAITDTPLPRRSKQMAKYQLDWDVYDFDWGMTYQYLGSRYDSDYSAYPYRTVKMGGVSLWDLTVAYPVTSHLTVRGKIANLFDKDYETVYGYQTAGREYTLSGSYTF

For “Gifsy-1 central tail tip J protein with Flag tag (natural protein)”, the values for the dissociation constant (Kd) in test [1], in test [2] and in test [3] were 0.00597 nM, 0.341 nM and 70 nM, respectively.
